Test results taken from US20160046721A1.

Experiments:
human ER-α36 (human) [1] = biological target: human ER-α36 (human) (UniProt P03372); experiment: flow cytometry on MCF-7 cells, isotype control; lower left panel, which carries no sample name: assigned by peak height and by the order of the samples
human ER-α36 (human) [2] = biological target: human ER-α36 (human) (UniProt P03372); experiment: flow cytometry on SK-BR-3 cells, isotype control; lower left panel without sample name, assigned by the order of the samples
human ER-α36 (human) [3] = biological target: human ER-α36 (human) (UniProt P03372); experiment: flow cytometry on MHCC-97H cells, isotype control; first lower panel without sample name, assigned by peak height (about 75) against histogram 4 of the overlay
human ER-α36 (human) [4] = biological target: human ER-α36 (human) (UniProt P03372); experiment: flow cytometry on 3T3 cells, ER-α36 Full length Clone#2, isotype control at 2.5 µg/ml
human ER-α36 (human) [5] = biological target: human ER-α36 (human) (UniProt P03372); experiment: flow cytometry on K562 cells, isotype control, concentration not given
human ER-α36 (human) [6] = biological target: human ER-α36 (human) (UniProt P03372); experiment: flow cytometry on MHCC-97H cells, isotype control; second lower panel without sample name, assigned by peak height against histogram 3 of the overlay
ER-α36 LBD (3T3 Clone#4) = experiment: flow cytometry on 3T3 cells, ER-α36 LBD Clone#4, isotype control at 2.5 µg/ml
Chain of ER-α36 LBD (3T3 Clone#4) (single chain, as listed by the source): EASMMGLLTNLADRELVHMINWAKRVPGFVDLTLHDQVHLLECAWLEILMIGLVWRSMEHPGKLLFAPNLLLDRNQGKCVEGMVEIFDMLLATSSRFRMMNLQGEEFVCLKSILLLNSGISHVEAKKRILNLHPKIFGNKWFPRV

Chain of human ER-α36 (human) (P03372 other isoform, or with tags, fused parts or gaps): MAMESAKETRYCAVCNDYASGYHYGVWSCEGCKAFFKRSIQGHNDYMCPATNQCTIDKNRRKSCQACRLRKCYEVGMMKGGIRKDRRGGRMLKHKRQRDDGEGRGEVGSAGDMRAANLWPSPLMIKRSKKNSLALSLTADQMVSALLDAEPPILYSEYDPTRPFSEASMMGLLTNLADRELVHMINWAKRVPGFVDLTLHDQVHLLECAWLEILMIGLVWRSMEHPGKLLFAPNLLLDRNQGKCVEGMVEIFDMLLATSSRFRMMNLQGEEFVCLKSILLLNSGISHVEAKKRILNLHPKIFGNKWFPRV

Q: Which results are given for mouse IgG2b (antibody)?
A: Yellow-A subset (percent of cells in the gate) (human ER-α36 (human) [1]): 19.9%; Yellow-A subset (percent of cells in the gate) (human ER-α36 (human) [2]): 13.1%; Yellow-A subset (percent of cells in the gate) (human ER-α36 (human) [3]): 6.82%; %Gated (region B) (human ER-α36 (human) [4]): 4.86%; Geom. Mean FL1 (human ER-α36 (human) [5]): 24.3; Yellow-A subset (percent of cells in the gate) (human ER-α36 (human) [6]): 5.68%; %Gated (region B) (ER-α36 LBD (3T3 Clone#4)): 4.93%
